Source: publication PMC9918737

What was measured:
[1] = target: ubH2B mono-nucleosome (H2B mono-ubiquitinated at lysine 120) (UniProt P0C0S8)
[2] = target: unmodified H2B mono-nucleosome (UniProt P0C0S8)
[3] = target: ubH2B mono-nucleosome (H2B mono-ubiquitinated at lysine 120) (UniProt P0C0S8); assay: single-molecule magnetic tweezers (force-jump); 409-bp nucleosome tethered between coverslip and bead, 83 nM FACT in the flow cell, force jumps between 0.1 pN and 11 pN (H2B-nucleosome) or 6 pN (ubH2B-nucleosome), Kd from the ratio of free to FACT-bound states, 25 °C

recombinant FACT complex (Flag-SPT16 and His6-SSRP1) (from UniProt Q9Y5B9 1-1047; Q08945 1-709)
rupture force of the inner DNA wrap of ubH2B-nucleosome in the presence of FACT (magnetic tweezers) [1]: 20 pN
rupture force of the outer DNA wrap of ubH2B-nucleosome in the presence of FACT (magnetic tweezers) [1]: 10 pN
tension at which the H2B-nucleosome is completely disrupted in the presence of FACT (magnetic tweezers, repeated stretching) [2]: < 10 pN
Kd [3]: 8 nM
